# Source: the nanobody polyreactivity screen of Harvey et al. (2022)
# Experiment: yeast display, Sf9 membrane polyspecificity reagent, FACS + sequencing; frameworks hold sequencing errors
# How it was run: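 Genes from sorted yeast were amplified by colony PCR, read by MiSeq 2 × 250 sequencing and filtered on CDR length. These cells carried a synthetic nanobody library in Saccharomyces cerevisiae BJ5465 and were sorted by FACS into low and high (top ~1%) gates on anti-HA and streptavidin fluorescence. Polyreactivity is labelled according to the gate of origin.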
row,Sequence,polyreactivity (PSR sort gate)
1,QVQLVESGGGLVQAGVSLRLSCAAAGITFGDYSMGWYRQEPGKEMELVAGIYWSGDGTSYADSVKGRFTISRDNAKNTVYLQMYRLKPEDTAVYYFAAYWYYYLMDYWGQGTQVSVSS,low polyreactivity
2,QVQLVESGGGLVQAGVSLRLSCAASAFILEGYAMGWYTQAPGKERELVAAISDSGGSTYYADSVKGRFTISRDNAKNTVYLQMNSLKPEDTAVYYCATAYYWWTAYSYSYDHWGQGTQVTVSS,high polyreactivity
3,QVQLVESGGGLVQAGVSLRLSCAASGFIFGLYVMGWYRQSPGKERELVAGITWTGGTTYYADSVKGRFTISRDNAKNTVYLQMNSLKPEDTAVYYCATRNYAVVPSVRREGYYWGQGTQVTVSS,low polyreactivity
4,QVQLVESGGGLVQAGVSLRLSCAASGFIFSFNAMGWYRQAPGKERELVAAISRSGGSTRYADSVKGRFTISRDNAKNTVYLQMNCLKPEDTAVYYCNARSPYYSYLLHAYRLFDYWGQGTQVTVSS,high polyreactivity
5,QVQLVESGGGLVQAGVSLRLSCAASGFTFPWYAMGWYLQAPGKERELVAAISWTGGSTYYADSVKGRFTSSRDNPKNTVNLQMLSLKPEDTAVYYCAVGIYDHLYNHEYWGHGTQVTVSS,low polyreactivity
6,QVQLVESGGGLVQAGVSLRLSCAASGGTFLVSAKGWYRQAPGKERQMVAAISVSGGSTYYADSVKGRFTISRDNAKNTVYLQMNSLKPEDTAVYYCAATYSHPFHTYVLRFFAYYYWGQGTQVTVSS,high polyreactivity
7,QVQLVESGGGLVQAGVSLRLSCAASGGTIVGNAMGWYRQAPGKERELVAAMSTNSGSTYYADSVKGRFTISRDNAKNTVYLQMNSLKPEDTAVYYFATRNSSKRRGYYYWGQGTQVTVSS,high polyreactivity
8,QVQLVESGGGLVQAGVSLRLSCAASGIIFRGNAMGWYRQAPGKERELVASICRRGGSTYYADSVKGRFTISRDNAKNTVYLQMNSLKPEDTAVYYCNAYGSTYVYGPYDYWGQGTQVTVSS,high polyreactivity
9,QVQLVESGGGLVQAGVSLRLSCAASGIILRYYVMGWYRQAPGKERELVAAITSRGGSTYYADSVKGRFTISRDNAKNTVYLQMNSLKPEDTAVYYCAAGYRNVNTFDYWGQGTQVTVSS,high polyreactivity
10,QVQLVESGGGLVQAGVSLRLSCAASGNIFGVYTMGWYRQAPGQEREFVAAISDGGSTYYADSVKGRFTISRDNAKNTVYLQMIRLKPEDTAVYYCAALIYGPDRVVDEFVYWGQGTQVTVSS,low polyreactivity
11,QVQLVESGGGLVQAGVSLRLSCAASGNTFKYYPMGWYRQAPGKEWELVAGITGTGGRTNYADSVKGRFTISRDNAKNTVYLQMTSLKPEDTAVYYFAADYWWYTGYDYWGQGTQVTVSS,high polyreactivity
12,QVQLVESGGGLVQAGVSLRLSCAASGRIFGYNDMGWYRQAPGKERELVAAINWTGGSTYYADSVKGRFTISRDNAKNTVYLQMNSLKPEDTAVYYCNADARTKWVQTHTDFITDYDYWGQGTQVTVSS,low polyreactivity
13,QVQLVESGGGLVQAGVSLRLSCAASGRTFAYNDMGCYRQAPGKERELVAAISWSDGTTYYADSVKGRFTSSRDNAKNTVYLQMNSLKPEDTAVYYCAAESYPSEVASYVSEYDYWGQGTQVTVSS,low polyreactivity
14,QVQLVESGGGLVQAGVSLRLSCAASGSIFVHYDMGWYRPAPGKERELVADIDYSGGSTYYADSVKGRFTISRDYAKNTVYLQMNSLKPEDTAVYDCAAERRRWGLDYYYWGQGTQVTVSS,high polyreactivity
15,QVQLVESGGGLVQAGVSLRLSCAASGSTFTANAMGWYRQAPGKERELVAAITNSDGSTYYADSVKGRFTISRDNAKNTVYLQINSLKPEDTAVYYCAKDYYACFWEMDYWGQGTQVTVSS,low polyreactivity
16,QVQLVESGGGLVQAGVSLRLSCAASGSTLVLNAMGWYRQAPGKERELDAAISRGGGSTSYADSVKGRFTISRDNAKNTVYLQMNSLKPEDTAVYYCNAYTYYHANHVQGFGYWGQGTQVTVSS,low polyreactivity
17,QVQLVESGGGLVQAGVSLRLSCAASGSTSSRNAMGRYRQAPGKEWELVAAITSGTRTYYADSVKGRFTISRDNAKNTVYLQMNSLKPEDTAVYYCARGRVSRYTNTDYDYWGQGTQVTVSS,high polyreactivity
18,QVQLVESGGGLVQAGVSLRLSCSASGRTFSGYAMGWYRQAPGKERELVAAISGGTSTNYADSVKGRFTISRDNAKNSVYLPMNSLKPEDTAVYYCNTDVPDPYWAYWTGGYDYWGQGTHVTVSS,low polyreactivity
19,QVQLVESGGGLVQAGVSLSLSCAGSGFIFFQYPMGWYRDAPGKDRELVAAISGSGVTTYYADSVKGRFTISRDYAKKTVYLQMNSLKPEDTAVYYCAALHYRIRRTGMDYWGQGTQVTVSS,low polyreactivity
20,QVQLVESGGGLVQALGSLRLSCAASGTTFNSNVMGWYRPAPGKERELVAGNNTTYYADSVKGRFTISRDNAKNTVYLQMNSLKPEDTAVYYCNGSEDAPAIEYLAPDGHDGYWGQGTQVTVSS,low polyreactivity
21,QVQLVESGGGLVQARGSLRLSCAASALTFRIYDMGWYRQAPGKERELVAAITRGGSTYADSVKGRFTISRDNAKNTVYLQMNSLKPEDTAVYYCAARVRSTSQVSASPVWYYYWGQGTQVTVSS,high polyreactivity
22,QVQLVESGGGLVQARGSLRLSCAASGFILTYYAMGRYRQAPGKEMELVATISSGGGSTYYADSVKGRFTISRDNAKNTVYLQMNSLKPEDTAVYFCAASRRMTGIRYINRYEYWGQGTQVTVSS,high polyreactivity

row,Sequence,polyreactivity (PSR sort gate)
1,QVQLVESGGGLVQARGSLRLSCAASGFTFDFYAMGWYRQAPGKERELVAAISKNDGTTYYADSVKGRFTISRDNAKNTVYLQMNSLKREDTAVYYCAAESGYPDYTYVSSGDYWGQGTQVTVSS,low polyreactivity
2,QVQLVESGGGLVQARGSLRLSCAASGIIFGYNAKGWYRQAPGKERELVAVITWNGGSTYYADSVKGCFTISRDNAKNTVYLQMNSLKPEDTAVYYCNAGDDYAYGVELSYDYWGQGTQVTVSS,low polyreactivity
3,QVQLVESGGGLVQARGSLRLSCAASGRIFSPYAMGWNRQAPWKERELVASITSGGTTNYADSVKGRFTISRDNAKNTVYLQMNSLKTEDTAVYYCATTYSYDDKFTSTLVDPDYGYWGQGTQVTVSS,low polyreactivity
4,QVQLVESGGGLVQARGSLRLSCAASGRILWDYAMGWYRQAPGKEREWLAAIDWSAGSTYYADSVKGRFTISRDNAKNTVYLQMKSLKPEDTAVYYCNARSRVGNSGADYDYWGQGTQVTVSS,low polyreactivity
5,QVQLVESGGGLVQARGSLRLSCAASGRTFGLYAMGWYIQAPGKEWELVAAITSGGSTYYADSVKGRFTISRDNAKYTVYLQMNSLTPEDTAVYFCDAEHDYLAQFEYDYWGPGTQVTVSS,low polyreactivity
6,QVQLVESGGGLVQARGSLRLSCAASGRTFTSYAMGWYRQAPGKERELVAAISKRGGNTYYADSVKGRFTISRDNAKNTVYLQMNSLKPEDTAVYYCAARTWAGRWYGLDYWGQGTQVTVSS,high polyreactivity
7,QVQLVESGGGLVQARGSLRLSCAASGRTSPYYAMGWYRQAPGKEREWVAAISDGGSTNYADSVKGRFTISRDNAKNTVYLQMNSLKPEDTAVYYCAAYWHCFGWLRGGYWGQGTQVTVSS,high polyreactivity
8,QVQLVESGGGLVQARGSLRLSCAASGSIFHHYAMGWYRQAPGKDTELVAAISKSGGSTYYADSVKGRFTISRDNAKNTVYLQMNSLKPEDTAVYYCNAEVFWWDLWYDYWGQGTKVTVSS,high polyreactivity
9,QVQLVESGGGLVQARGSLRLSCAASGSIFPGYAMRWYREAPGKARELVAAISTSGGSTYADSVTGRFTISRDNAKNTGYLQMNSLKPEDTAVYYCAATYTYTSPVYYSLDGPWPYDYWGQGSQVTVSS,low polyreactivity
10,QVQLVESGGGLVQARGSLRLSCAASGSIFPNYAMGWYRQAPGKERELVAAISSSGGRTYYADSVKGRFTSSRDNAKNTVYLQMNRLKPEDTAVYYCAVRGYWGEGTQVTVSS,low polyreactivity
11,QVQLVESGGGLVQARGSLRLSCAASGSIFYRNAMGWYRQAPGKETELVARIDRGGITHYADSVKGRFTISRDNAMNTVYLQMNSLKPEDTAVYYCAARKGYWYPTGHGARRYDYWGQGTQVTVSS,high polyreactivity
12,QVQLVESGGGLVQARGSLRLSCAASGSTFDLYAMGWYRQAPGKEREFVAAISSSGGTTYNADSVKGRFTSSRDNAKKTVYLQRKSLKPEDTAVYYCAAVRYYESRGGYDYWGQGTQVTVSS,low polyreactivity
13,QVQLVESGGGLVQARGSLRLSCAASGSTFVTYAMGWYRQAPGKERELVAAITWSGGGTYYADSVKGRFTISRDNAKNTVYLQMNSLKPEDTAVYYCNRPAAVGDEDYWGQGTQVTVSS,low polyreactivity
14,QVQLVESGGGLVQARGSLRLSCAPSGFIFDVYAMGWYRQAPGKERELVAAISSSGGRTYYADSVKGRFTISRDNAKNTVYLQMNSLKPEDTAVYYCAAKTDSRTKVYTADYWGQGTQVTVSS,high polyreactivity
15,QVQLVESGGGLVQARGSLRLSCASSGRIFWRYAMRWYSQSPGKERELVAAISRSGGRTYYADSVKGRFTISRDNAKNTVYLQMISLKPEDTAVYYCAAKTGGQPGDYWGQGTQVTVSS,high polyreactivity
16,QVQLVESGGGLVQARGSLRLSCSSSGSIFASYAMGWYRRAPGKERELVAAISRRAVLTYYADSVKGSFTISRDNAKNTVYLQMNSLKPEDTAVYYCNARGYSGYQRYGYNYWGQGTQVTVSS,high polyreactivity
17,QVQLVESGGGLVQARGSRRLTCAASGRTFSYYAMGWYLHEPGKERELVAAITSSGGRTTYADSVKGRFTISRDNAKNTVYLQMNSLKPEDTAVYYCNVVRWTLKYGYWGQGTQVTVSS,high polyreactivity
18,QVQLVESGGGLVQARRSLRLSCAASGSTFVQYAMGWDRQAPGNERELVASISYSTGSSTYYADSVKGRFTISRDNAKTTVYLQMNSLKPEDTAFYECAAGIPKGGWSRPRYYYWGQGTQVTVSS,high polyreactivity
19,QVQLVESGGGLVQASGSLRLSCAASVRIFFVNAMGWYRQEHGKERELVAAIPSSGGSTYYADSVKGRFTISRDNAKNTVYLQMNSLKPEDTAVYYCNARSWYPYDYWGQGTQVTVSS,low polyreactivity
20,QVQLVESGGGLVQAVGSIRLSCAASGSIFRKYSIRWNRQAPGKDRELVAAISWSGGGTYYADSVKGRFTISRDNAKNTVYLQMNSLKPEDTAVYYCAADPYWDSKGVYWGQGTQVTVSS,low polyreactivity
21,QVQLVESGGGLVQAVGSLRLICDASGSTFYKYSMGWYRQAPGKERELVAAITTSGTGTYYADSVKGRFTISRDNAKNTVYLEMNSLKPEDTGVYYCNARIVYRVGVSRMYYWGQGTQVTVSS,high polyreactivity
